# Patent publication US20250019439A1 (Adimab, published 2025)
# B1: ADI-34142 (antibody, V domains shown)
# VH: EVQLLESGGGLVQPGGSLRLSCAASGFTFSSYAMSWVRQAPGKGLEWVSTISGSGGSTYYADSVKGRFTISRDNSKNTLYLQMNSLRAEDTAVYYCARLGGRRGSGSSYYYYYGMDVWGQGTTVTVSS
# VL: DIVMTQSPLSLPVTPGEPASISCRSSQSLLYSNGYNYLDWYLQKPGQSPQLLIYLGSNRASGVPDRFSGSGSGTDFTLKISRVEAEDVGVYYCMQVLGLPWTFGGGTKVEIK
# notes: anti-ID IgG
# How the values were obtained:
# ADI-70326 = target: T1, ADI-70326; experiment: SPR Carterra, yeast anti-ID
# T1 construct: anti-CD3 antibody made in CHO cells, captured by anti-human Fc
# Protocol: (§1) Kinetic analysis was conducted at 25° C. in an HBSTE running buffer system (Carterra Cat #3630) using a Carterra LSA (Carterra USA, Salt Lake City, UT). The sample compartment was maintained at 20° C. for the duration of each experiment.
# (§2) For antibody capture experiments, a goat anti-human Fc antibody (Jackson ImmunoResearch) was covalently coupled to an HC30M sensor chip surface via standard amine coupling (1:1 EDC:NHS) and then blocked with ethanolamine (1.0 M, pH 8.5). Covalent coupling steps were performed in 25 mM MES buffer (Carterra, Cat #3625) plus 0.05% Tween20. The anti-CD3 antibodies (100 nM in running buffer) were flowed over discrete regions of interest on the chip surface for 5 minutes. […] Dissociation of the anti-idiotype antibodies was monitored for 300s. Several blank buffer samples were injected over the entire chip surface at the start of each non-regenerative kinetic cycle. The preceding blank buffer injection was used for blank surface subtraction. At the end of each non-regenerative kinetic cycle, all surfaces were regenerated via two 30s injections of 10 mM glycine, pH 1.7.
# (§3) For data processing and fitting, sensorgrams were double reference subtracted with a baseline drift correction of 4 RU. Sensorgrams were y-aligned and baseline corrected, filtered and cropped to include only the association and dissociation steps. Data was fitted to a 1:1 binding model using Carterra Kinetics Data Analysis software version 1.7.1.3055.
# ADI-70327 = target: T2, ADI-70327; experiment: SPR Carterra, yeast anti-ID
# T2 construct: anti-CD3 antibody made in CHO cells, captured by anti-human Fc
# Protocol: as §1, §2, §3
# ADI-70330 = target: T3, ADI-70330; experiment: SPR Carterra, yeast anti-ID
# T3 construct: anti-CD3 antibody made in CHO cells, captured by anti-human Fc
# Protocol: as §1, §2, §3
# ADI-67445 = target: T4, ADI-67445; experiment: SPR Carterra, yeast anti-ID
# T4 construct: anti-CD3 antibody made in CHO cells, captured by anti-human Fc
# Protocol: as §1, §2, §3
# ADI-26909 = target: T5, ADI-26909; experiment: SPR Carterra, yeast anti-ID
# T5 construct: anti-CD3 antibody made in CHO cells, captured by anti-human Fc
# Protocol: as §1, §2, §3
# ADI-26921 IgG = target: T6, ADI-26921 IgG; experiment: SPR Carterra, yeast anti-ID
# T6 construct: anti-CD3 IgG
# Protocol: as §1, §2, §3
# ADI-26915 = target: T7, ADI-26915; experiment: SPR Carterra, yeast anti-ID
# T7 construct: anti-CD3 antibody made in CHO cells, captured by anti-human Fc
# Protocol: as §1, §2, §3
# ADI-48587 = target: T8, ADI-48587; experiment: SPR Carterra, yeast anti-ID
# T8 construct: pH-dependent anti-CD3 antibody made in CHO cells
# Protocol: as §1, §2, §3
# CTL-62223 = target: T9, CTL-62223; experiment: SPR Carterra, yeast anti-ID
# T9 construct: also called mosunetuzumab
# Protocol: as §1, §2, §3
# CTL-62227 = target: T10, CTL-62227; experiment: SPR Carterra, yeast anti-ID
# T10 construct: also called odronextamab
# Protocol: as §1, §2, §3
# CTL-62228 = target: T11, CTL-62228; experiment: SPR Carterra, yeast anti-ID
# T11 construct: also called glofitamab
# Protocol: as §1, §2, §3
# CTL-62240 = target: T12, CTL-62240; experiment: SPR Carterra, yeast anti-ID
# T12 construct: also called ONO-4685
# Protocol: as §1, §2, §3
# ADI-50024 = target: T13, ADI-50024; experiment: SPR Carterra avidity, yeast anti-ID
# T13 construct: anti-CD3 antibody made in CHO cells, captured by anti-human Fc
# Protocol: as §1, §2, §3
# ADI-67450 = target: T14, ADI-67450; experiment: SPR Carterra avidity, yeast anti-ID
# T14 construct: anti-CD3 antibody made in CHO cells, captured by anti-human Fc
# Protocol: as §1, §2, §3
# ADI-67447 = target: T15, ADI-67447; experiment: SPR Carterra avidity, yeast anti-ID
# T15 construct: anti-CD3 antibody made in CHO cells, captured by anti-human Fc
# Protocol: as §1, §2, §3
# ADI-26913 IgG = target: T16, ADI-26913 IgG; experiment: SPR Carterra avidity, yeast anti-ID
# T16 construct: anti-CD3 IgG
# Protocol: as §1, §2, §3
# ADI-26919 = target: T17, ADI-26919; experiment: SPR Carterra avidity, yeast anti-ID
# T17 construct: anti-CD3 antibody made in CHO cells, captured by anti-human Fc
# Protocol: as §1, §2, §3
# ADI-26916 IgG = target: T18, ADI-26916 IgG; experiment: SPR Carterra avidity, yeast anti-ID
# T18 construct: anti-CD3 IgG
# Protocol: as §1, §2, §3
# ADI-26912 = target: T19, ADI-26912; experiment: SPR Carterra avidity, yeast anti-ID
# T19 construct: anti-CD3 antibody made in CHO cells, captured by anti-human Fc
# Protocol: as §1, §2, §3
# ADI-26924 = target: T20, ADI-26924; experiment: SPR Carterra avidity, yeast anti-ID
# T20 construct: anti-CD3 antibody made in CHO cells, captured by anti-human Fc
# Protocol: as §1, §2, §3
# ADI-26943 = target: T21, ADI-26943; experiment: SPR Carterra avidity, yeast anti-ID
# T21 construct: anti-CD3 antibody made in CHO cells, captured by anti-human Fc
# Protocol: as §1, §2, §3
# ADI-48576 = target: T22, ADI-48576; experiment: SPR Carterra avidity, yeast anti-ID
# T22 construct: pH-dependent anti-CD3 antibody made in CHO cells
# Protocol: as §1, §2, §3
# ADI-48592 = target: T23, ADI-48592; experiment: SPR Carterra avidity, yeast anti-ID
# T23 construct: pH-dependent anti-CD3 antibody made in CHO cells
# Protocol: as §1, §2, §3
# ADI-48650 = target: T24, ADI-48650; experiment: SPR Carterra avidity, yeast anti-ID
# T24 construct: pH-dependent anti-CD3 antibody made in CHO cells
# Protocol: as §1, §2, §3
# ADI-74965 = target: T25, ADI-74965; experiment: SPR Carterra avidity, yeast anti-ID
# T25 construct: pH-dependent anti-CD3 antibody made in CHO cells
# Protocol: as §1, §2, §3
# ADI-74966 = target: T26, ADI-74966; experiment: SPR Carterra avidity, yeast anti-ID
# T26 construct: pH-dependent anti-CD3 antibody made in CHO cells
# Protocol: as §1, §2, §3
# ADI-74967 = target: T27, ADI-74967; experiment: SPR Carterra avidity, yeast anti-ID
# T27 construct: pH-dependent anti-CD3 antibody made in CHO cells
# Protocol: as §1, §2, §3
# ADI-74968 = target: T28, ADI-74968; experiment: SPR Carterra avidity, yeast anti-ID
# T28 construct: pH-dependent anti-CD3 antibody made in CHO cells
# Protocol: as §1, §2, §3
# ADI-76358 = target: T29, ADI-76358; experiment: SPR Carterra avidity, yeast anti-ID
# T29 construct: anti-CD3 antibody made in CHO cells, captured by anti-human Fc
# Protocol: as §1, §2, §3
# ADI-76359 = target: T30, ADI-76359; experiment: SPR Carterra avidity, yeast anti-ID
# T30 construct: anti-CD3 antibody made in CHO cells, captured by anti-human Fc
# Protocol: as §1, §2, §3
# ADI-76360 = target: T31, ADI-76360; experiment: SPR Carterra avidity, yeast anti-ID
# T31 construct: anti-CD3 antibody made in CHO cells, captured by anti-human Fc
# Protocol: as §1, §2, §3
# ADI-76361 = target: T32, ADI-76361; experiment: SPR Carterra avidity, yeast anti-ID
# T32 construct: anti-CD3 antibody made in CHO cells, captured by anti-human Fc
# Protocol: as §1, §2, §3
# ADI-76362 = target: T33, ADI-76362; experiment: SPR Carterra avidity, yeast anti-ID
# T33 construct: anti-CD3 antibody made in CHO cells, captured by anti-human Fc
# Protocol: as §1, §2, §3
# ADI-22523 Fab = target: T34, ADI-22523 Fab; experiment: BLI; tip anti-ID IgG, solution ADI-22523 Fab
# T34 construct: anti-CD3 Fab by papain digestion of the IgG
# Protocol: (§4) ForteBio affinity measurements were performed generally as previously described (Estep et al., MAbs. 2013 5(2):270-8). Briefly, ForteBio affinity measurements were performed by loading antibody IgG or Fabs on-line onto AHC sensors. Sensors were equilibrated off-line in assay buffer for 30 minutes and then monitored on-line for 60 seconds for baseline establishment. For avid binding measurement, sensors with loaded antibodies were exposed to IgG or Fab solutions for 3 minutes, afterwards they were transferred to assay buffer for 3 minutes for off-rate measurement. Kinetics data were fit using a 1:1 binding model in the data analysis software provided by ForteBio to obtain equilibrium dissociation constant (KD=koff/kₒₙ) values. In each column, tip-immobilized antibodies are listed first and solution antibodies second.
# ADI-22523 IgG = target: T35, ADI-22523 IgG; experiment: BLI; tip anti-ID IgG, solution ADI-22523 IgG
# T35 construct: anti-CD3 IgG
# Protocol: as §4
# ADI-26906 IgG = target: T36, ADI-26906 IgG; experiment: SPR Carterra avidity, yeast anti-ID, *koff limit
# T36 construct: anti-CD3 IgG
# Protocol: as §1, §2, §3
# ADI-26920 IgG = target: T37, ADI-26920 IgG; experiment: SPR Carterra avidity, yeast anti-ID, *koff limit
# T37 construct: anti-CD3 IgG
# Protocol: as §1, §2, §3
# ADI-76357 = target: T38, ADI-76357; experiment: SPR Carterra avidity, yeast anti-ID, *koff limit
# T38 construct: anti-CD3 antibody made in CHO cells, captured by anti-human Fc
# Protocol: as §1, §2, §3
# T10 sequence (VH, as listed by the source, chain 1 of 2): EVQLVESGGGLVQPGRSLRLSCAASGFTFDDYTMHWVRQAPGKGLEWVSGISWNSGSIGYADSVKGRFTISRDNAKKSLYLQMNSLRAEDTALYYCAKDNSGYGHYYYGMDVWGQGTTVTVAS
# T10 sequence (VL, as listed by the source, chain 2 of 2): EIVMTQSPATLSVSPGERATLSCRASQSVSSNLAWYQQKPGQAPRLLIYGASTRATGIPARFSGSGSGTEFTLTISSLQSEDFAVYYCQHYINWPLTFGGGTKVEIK
# T7 sequence (VH, as listed by the source, chain 1 of 2): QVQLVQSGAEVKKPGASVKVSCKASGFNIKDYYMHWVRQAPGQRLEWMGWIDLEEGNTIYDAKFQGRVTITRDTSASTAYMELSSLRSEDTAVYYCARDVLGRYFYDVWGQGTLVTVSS
# T7 sequence (VL, as listed by the source, chain 2 of 2): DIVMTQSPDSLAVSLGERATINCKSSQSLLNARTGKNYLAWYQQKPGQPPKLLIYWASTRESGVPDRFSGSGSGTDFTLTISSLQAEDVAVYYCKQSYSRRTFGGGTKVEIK
# T9 sequence (VH, as listed by the source, chain 1 of 2): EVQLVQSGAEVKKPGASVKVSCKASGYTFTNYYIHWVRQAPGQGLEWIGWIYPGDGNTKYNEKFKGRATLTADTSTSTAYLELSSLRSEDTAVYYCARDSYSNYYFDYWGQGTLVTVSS
# T9 sequence (VL, as listed by the source, chain 2 of 2): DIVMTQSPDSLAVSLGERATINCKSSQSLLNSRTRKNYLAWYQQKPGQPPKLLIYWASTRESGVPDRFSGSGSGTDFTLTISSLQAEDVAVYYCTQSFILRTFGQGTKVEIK
# T19 sequence (VH, as listed by the source, chain 1 of 2): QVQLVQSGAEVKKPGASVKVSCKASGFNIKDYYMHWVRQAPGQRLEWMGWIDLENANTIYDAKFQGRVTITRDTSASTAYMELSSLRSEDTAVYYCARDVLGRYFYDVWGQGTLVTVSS
# T35 sequence (VH, as listed by the source limits assumed, chain 1 of 2): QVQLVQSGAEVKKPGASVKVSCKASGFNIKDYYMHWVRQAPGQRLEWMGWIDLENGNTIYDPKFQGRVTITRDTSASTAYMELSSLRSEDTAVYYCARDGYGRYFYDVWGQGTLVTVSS
# T35 sequence (VL, as listed by the source limits assumed, chain 2 of 2): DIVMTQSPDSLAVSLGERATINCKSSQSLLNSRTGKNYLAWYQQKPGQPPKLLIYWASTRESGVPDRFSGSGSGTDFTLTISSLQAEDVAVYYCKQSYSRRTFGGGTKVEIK
# T32 sequence (VH, as listed by the source, chain 1 of 2): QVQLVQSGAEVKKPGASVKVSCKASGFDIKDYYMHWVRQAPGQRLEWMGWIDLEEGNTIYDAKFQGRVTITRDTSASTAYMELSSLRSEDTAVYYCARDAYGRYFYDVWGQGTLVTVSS
# T32 sequence (VL, as listed by the source, chain 2 of 2): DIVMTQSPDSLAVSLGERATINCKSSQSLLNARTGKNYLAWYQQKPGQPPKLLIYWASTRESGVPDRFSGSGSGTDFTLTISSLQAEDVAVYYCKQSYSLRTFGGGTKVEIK
# T6 sequence (VH, as listed by the source limits assumed, chain 1 of 2): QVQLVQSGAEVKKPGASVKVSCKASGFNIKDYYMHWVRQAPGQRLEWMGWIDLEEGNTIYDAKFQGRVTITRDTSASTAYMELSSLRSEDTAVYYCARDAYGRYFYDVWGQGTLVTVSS
# T15 sequence (VH, as listed by the source limits assumed, chain 1 of 2): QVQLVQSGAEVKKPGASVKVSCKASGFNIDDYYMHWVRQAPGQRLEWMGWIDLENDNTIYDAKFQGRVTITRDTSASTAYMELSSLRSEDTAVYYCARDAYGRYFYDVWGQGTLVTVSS
# T12 sequence (VH, as listed by the source, chain 1 of 2): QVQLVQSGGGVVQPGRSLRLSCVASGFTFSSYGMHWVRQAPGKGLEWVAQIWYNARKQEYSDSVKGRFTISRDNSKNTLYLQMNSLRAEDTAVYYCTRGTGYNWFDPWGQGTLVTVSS
# T12 sequence (VL, as listed by the source, chain 2 of 2): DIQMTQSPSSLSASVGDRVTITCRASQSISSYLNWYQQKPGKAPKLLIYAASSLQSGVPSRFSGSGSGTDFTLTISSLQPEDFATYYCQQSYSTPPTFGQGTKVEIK
# T16 sequence (VH, as listed by the source limits assumed, chain 1 of 2): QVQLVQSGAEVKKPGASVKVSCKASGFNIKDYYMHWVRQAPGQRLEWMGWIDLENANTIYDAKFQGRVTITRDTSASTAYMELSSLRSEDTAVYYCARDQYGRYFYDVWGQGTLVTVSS
# T5 sequence (VH, as listed by the source limits assumed, chain 1 of 2): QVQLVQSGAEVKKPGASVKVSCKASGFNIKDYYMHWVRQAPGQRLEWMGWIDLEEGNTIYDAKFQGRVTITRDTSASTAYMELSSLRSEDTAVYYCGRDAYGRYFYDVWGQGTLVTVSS
# T18 sequence (VH, as listed by the source, chain 1 of 2): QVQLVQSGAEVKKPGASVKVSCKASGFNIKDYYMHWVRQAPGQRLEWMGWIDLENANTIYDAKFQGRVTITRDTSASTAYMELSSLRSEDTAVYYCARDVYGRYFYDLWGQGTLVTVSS
# T14 sequence (VH, as listed by the source limits assumed, chain 1 of 2): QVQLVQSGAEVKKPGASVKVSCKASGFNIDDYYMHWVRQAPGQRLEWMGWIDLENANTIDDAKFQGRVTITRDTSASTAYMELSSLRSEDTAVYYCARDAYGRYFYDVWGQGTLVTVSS
# T2 sequence (VH, as listed by the source limits assumed, chain 1 of 2): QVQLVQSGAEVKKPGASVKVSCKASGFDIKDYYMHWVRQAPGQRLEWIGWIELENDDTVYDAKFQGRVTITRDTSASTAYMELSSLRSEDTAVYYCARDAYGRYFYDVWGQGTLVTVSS
# T2 sequence (VL, as listed by the source limits assumed, chain 2 of 2): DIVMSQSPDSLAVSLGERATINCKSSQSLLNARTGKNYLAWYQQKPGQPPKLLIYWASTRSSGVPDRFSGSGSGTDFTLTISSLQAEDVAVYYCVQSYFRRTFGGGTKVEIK
# T13 sequence (VH, as listed by the source limits assumed, chain 1 of 2): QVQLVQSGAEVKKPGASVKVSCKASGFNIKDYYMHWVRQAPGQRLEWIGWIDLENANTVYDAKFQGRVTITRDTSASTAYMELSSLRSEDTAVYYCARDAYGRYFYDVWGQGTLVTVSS
# T22 sequence (VH, as listed by the source, chain 1 of 2): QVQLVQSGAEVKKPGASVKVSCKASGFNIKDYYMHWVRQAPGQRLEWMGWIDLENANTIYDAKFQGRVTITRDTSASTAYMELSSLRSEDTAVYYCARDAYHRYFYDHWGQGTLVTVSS
# T22 sequence (VL, as listed by the source, chain 2 of 2): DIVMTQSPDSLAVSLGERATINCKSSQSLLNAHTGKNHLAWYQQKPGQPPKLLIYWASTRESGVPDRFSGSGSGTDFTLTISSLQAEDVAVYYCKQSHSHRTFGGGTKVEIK
# T8 sequence (VH, as listed by the source, chain 1 of 2): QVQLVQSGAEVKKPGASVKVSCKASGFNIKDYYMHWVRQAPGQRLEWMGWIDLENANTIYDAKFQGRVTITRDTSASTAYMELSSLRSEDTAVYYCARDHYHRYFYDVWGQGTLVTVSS
# T8 sequence (VL, as listed by the source, chain 2 of 2): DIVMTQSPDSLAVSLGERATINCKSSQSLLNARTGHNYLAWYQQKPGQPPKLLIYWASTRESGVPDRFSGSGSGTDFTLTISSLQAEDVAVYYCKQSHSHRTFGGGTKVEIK
binder,measurement,setting,value
B1,binding result,ADI-70326,no binding (tested: up to 200 nM)
same,binding result,ADI-70327,no binding (tested: up to 200 nM)
same,binding result,ADI-70330,no binding (tested: up to 200 nM)
same,binding result,ADI-67445,no binding (tested: up to 200 nM)
same,binding result,ADI-26909,no binding (tested: up to 200 nM)
same,binding result,ADI-26921 IgG,no binding (tested: up to 200 nM)
same,binding result,ADI-26915,no binding (tested: up to 200 nM)
same,binding result,ADI-48587,no binding (tested: up to 200 nM)
same,binding result,CTL-62223,no binding (tested: up to 200 nM)
same,binding result,CTL-62227,no binding (tested: up to 200 nM)
same,binding result,CTL-62228,no binding (tested: up to 200 nM)
same,binding result,CTL-62240,no binding (tested: up to 200 nM)
same,binding result,ADI-50024,binds
same,binding result,ADI-67450,binds
same,Kd,ADI-67447,21 nM
same,Kd,ADI-26913 IgG,11 nM
same,Kd,ADI-26919,18 nM
same,Kd,ADI-26916 IgG,21 nM
same,binding result,ADI-26912,binds
same,Kd,ADI-26924,32 nM
same,Kd,ADI-26943,6.5 nM
same,Kd,ADI-48576,76 nM
same,binding result,ADI-48592,binds
same,binding result,ADI-48650,binds
same,binding result,ADI-74965,binds
same,binding result,ADI-74966,binds
same,binding result,ADI-74967,binds
same,Kd,ADI-74968,45 nM
same,binding result,ADI-76358,binds
same,Kd,ADI-76359,7.3 nM
same,Kd,ADI-76360,36 nM
same,binding result,ADI-76361,binds
same,binding result,ADI-76362,binds
same,Kd,ADI-22523 Fab,14.7 nM
same,Kd,ADI-22523 IgG,4.11 nM
same,Kd,ADI-26906 IgG,12 nM
same,Kd,ADI-26920 IgG,6.1 nM
same,Kd,ADI-76357,5.7 nM
